# Measurements: US20180086823A1 (FRAUNHOFER GESELLSCHAFT ZUR FOERDERUNG DER ANGEWANDTEN …, published 2018)
# Where two headings read alike, the source gives them in different places.
# T1: recombinant apical membrane antigen 1 (AMA-1) from Plasmodium falciparum 3D7, produced in Pichia pastoris, … (Plasmodium falciparum (strain 3D7), UniProt P22621 25-546)
# T1 construct: also called native target antigen AMA-1; recombinant AMA-1
# T1 chain: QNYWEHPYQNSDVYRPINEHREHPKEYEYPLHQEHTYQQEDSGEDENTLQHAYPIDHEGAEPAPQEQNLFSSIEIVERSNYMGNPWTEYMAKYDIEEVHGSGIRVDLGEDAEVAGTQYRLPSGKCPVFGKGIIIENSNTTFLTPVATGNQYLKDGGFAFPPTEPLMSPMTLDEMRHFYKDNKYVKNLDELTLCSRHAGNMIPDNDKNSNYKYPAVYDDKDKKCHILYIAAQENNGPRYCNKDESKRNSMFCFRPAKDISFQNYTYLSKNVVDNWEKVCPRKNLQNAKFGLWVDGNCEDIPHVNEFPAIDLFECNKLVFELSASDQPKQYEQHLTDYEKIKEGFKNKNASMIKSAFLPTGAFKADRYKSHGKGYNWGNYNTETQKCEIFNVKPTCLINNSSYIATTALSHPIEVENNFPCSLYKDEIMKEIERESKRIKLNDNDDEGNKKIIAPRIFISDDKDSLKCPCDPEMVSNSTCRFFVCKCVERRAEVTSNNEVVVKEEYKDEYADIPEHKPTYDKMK
# T2: AMA-1 of Plasmodium falciparum strain 3D7, on parasites (schizonts/merozoites) (Plasmodium falciparum (strain 3D7), UniProt P22621 25-622)
# T2 chain: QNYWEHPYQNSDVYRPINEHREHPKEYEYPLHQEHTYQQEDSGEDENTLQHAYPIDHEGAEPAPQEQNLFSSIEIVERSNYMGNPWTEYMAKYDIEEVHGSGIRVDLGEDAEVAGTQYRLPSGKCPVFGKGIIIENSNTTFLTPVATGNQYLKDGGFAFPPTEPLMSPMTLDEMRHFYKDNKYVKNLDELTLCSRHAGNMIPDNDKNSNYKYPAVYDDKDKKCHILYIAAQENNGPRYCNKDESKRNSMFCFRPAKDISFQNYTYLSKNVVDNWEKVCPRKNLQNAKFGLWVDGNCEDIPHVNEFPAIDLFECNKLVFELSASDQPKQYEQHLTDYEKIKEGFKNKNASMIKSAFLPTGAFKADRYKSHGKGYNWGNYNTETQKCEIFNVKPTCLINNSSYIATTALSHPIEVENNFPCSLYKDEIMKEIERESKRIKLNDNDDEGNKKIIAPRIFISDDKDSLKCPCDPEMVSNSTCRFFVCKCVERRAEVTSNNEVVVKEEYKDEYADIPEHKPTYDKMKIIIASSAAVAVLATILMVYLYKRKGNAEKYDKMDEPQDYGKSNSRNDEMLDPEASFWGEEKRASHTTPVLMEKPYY
# Columns and labels:
# [1] = target: T1, recombinant apical membrane antigen 1 …; assay: SPR, Biacore T200, protein-A capture of the antibody, 25° C., 1:1 Langmuir fit
# Protocol: All antibodies were diluted into running buffer to yield equivalent capture levels. The injection time was set to 180 s and dissociation was recorded for 600 s. The protein-A surface was regenerated by a 30 s pulse with 30 mM HCI. For the antibody buffer injections were used for double referencing. Values for the KD of the antibody were calculated according to the curve-fitting methodology for a simple binding model (1:1 Langmuir).
# [2] = target: T2, AMA-1 of Plasmodium falciparum strain …; assay: cell-based or functional assay
# [3] = target: T2, AMA-1 of Plasmodium falciparum strain …; assay: cell-based or functional assay
# [4] = target: AMA-1 of Plasmodium falciparum strain FCR3, on parasites (Plasmodium falciparum (strain FCR3)); assay: cell-based or functional assay
# [5] = target: AMA-1 of Plasmodium falciparum strain K1, on parasites (Plasmodium falciparum (strain K1)); assay: cell-based or functional assay
# [6] = target: AMA-1 of Plasmodium falciparum strain HB3, on parasites (Plasmodium falciparum (strain HB3)); assay: cell-based or functional assay
binder,measurement,setting,value
"huMAb-anti-AMA-1.1 (antibody, V domains shown, also called recombinant human anti AMA-1 antibody) VH: QVQLQESGPGLVKPSETLSLTCSVSGVSVSSTVFYWGWIRQSPGKGLEWIGSIYYSGSTYYNEALKSRLTLSVETSERQFSLRLSSVTAADTAVYYCARGAINFGGYSGPGTFYFDIWGQGTLITVSS VL: DIQMTQSPSTLSASVGDRVTITCRASQSITTWLAWYQQKPGTAPKLLIYKASILETGVPSRFSGSGSGTDFTLTISSLQPDDFATYYCQQYSTHLFTFGPGTKVDIK",Kd,[1],0.188 nM
same,koff,[1],0.000131 s⁻¹
same,kon,[1],698000 M⁻¹ s⁻¹
same,"IC50 [µg/ml], growth inhibition assay (GIA), strain 3D7",[2],32 µg/mL
same,"IC50 [µg/ml], growth inhibition assay (GIA), strain 3D7",[3],32 µg/mL
same,"IC50 [µg/ml], growth inhibition assay (GIA), strain FCR3",[4],230 µg/mL
same,"IC50 [µg/ml], growth inhibition assay (GIA), strain K1",[5],113 µg/mL
same,"IC50 [µg/ml], growth inhibition assay (GIA), strain HB3",[6],115 µg/mL
